Data on 21 substances can be found in publication PMC4447404.

Several values for one entry are separate records, joined by “and”; a condition that tells them apart may be missing. Equal values may be shown once.

In the first data set the test system is DnaA-his (Bacillus subtilis). Briefly: IDAP-Seq (affinity pull-down). The following applies: 550 nM DnaA, 40 mM HEPES-KOH pH 7.6, 150 mM K-glutamate, 2.5 mM ATP or ADP, 10 mM Mg acetate, 0.2 mM DTT, 50 ug/ml BSA, 0.1 mM EDTA, 20% glycerol, 4% sucrose, 0.2 mg/ml ….
Substance yhdF internal gave a binding signal (fold ATP/ADP DNA recovered) of 24.

Still in this data set, the particulars now being: 40 mM HEPES-KOH pH 7.6, 150 mM K-glutamate, 2.5 mM ATP or ADP, 10 mM Mg acetate, 0.2 mM DTT, 50 ug/ml BSA, 0.1 mM EDTA, 20% glycerol, 4% sucrose, 0.2 mg/ml ….
For the substance codV internal (peak 9), the Kd was 1.1 µM and 1.9 µM.
Same read-out and setting: under gcp/ydiF downstream (peak 4) stands 0.15 µM and 0.33 µM; under ggaA internal (peak 18), 2.7 µM and 4.8 µM.
Take oriC dnaA-dnaN (peak 2): the dissociation constant (Kd) was 0.16 µM and 0.3 µM.
Regarding oriC upstream of dnaA (peak 1), the Kd is 0.21 µM and 0.33 µM.
Still for that read-out and setting: under rlmCD internal (peak 20) stands 7.5 µM and 6.7 µM.
As for rplB internal (peak 10), the dissociation constant (Kd) was 1.4 µM and 1.2 µM.
Same read-out and setting: for trmE upstream / jag downstream (peak 5) the value was 0.33 µM and 0.43 µM; for yhcA internal (peak 12), 3.6 µM and 2.8 µM; for yhcN internal (peak 15), 19.4 µM and 6.9 µM.
For the substance “ynaI downstream / xynP upstream (peak 11)”, the equilibrium dissociation constant (Kd) was 2 µM and 3 µM.
On to yopH internal (peak 19), for which the dissociation constant Kd is 4.9 µM and 5 µM.
As to yorF internal (peak 13), the Kd is 2 µM and 3 µM.
The same measure, in the same setting: under yqeG/sda upstream (peak 7) stands 0.15 µM and 0.51 µM.
Still for that read-out and setting: under yutJ internal (peak 16) stands 2.5 µM and 2.9 µM; under yvmC/yvmB upstream (peak 14), 2.2 µM and 4.4 µM.
On the same count and under the same terms, for ywcI/vpr upstream (peak 3) the value was 0.13 µM and 0.17 µM.
For “ywlC upstream / ywlB downstream (peak 6)”, the equilibrium dissociation constant (Kd) is 0.25 µM and 0.45 µM.
Still for that read-out and setting: under “yydA upstream / yyzF downstream (peak 8)” stands 0.16 µM and 0.33 µM.
On the same count and under the same terms, for yydH internal (peak 17) the value was 2.4 µM and 4.6 µM.
